{"source": "patent US20180022822A1", "about": "“NOVEL ANTI-FIBROBLAST ACTIVATION PROTEIN (FAP) BINDING AGENTS AND USES THEREOF” (Mabimmune Diagnostics AG, priority 2016, published 2018)", "key": {"[1]": {"target": "T1, rhFAP and FAP homologues (DPP4, DPP8, DPP9, POP/PREP) (Homo sapiens, UniProt Q12884)", "T1 construct": "purchased Sino Biologicals 10464-H07H", "T1 sequence (Q12884 26-760 limits assumed)": "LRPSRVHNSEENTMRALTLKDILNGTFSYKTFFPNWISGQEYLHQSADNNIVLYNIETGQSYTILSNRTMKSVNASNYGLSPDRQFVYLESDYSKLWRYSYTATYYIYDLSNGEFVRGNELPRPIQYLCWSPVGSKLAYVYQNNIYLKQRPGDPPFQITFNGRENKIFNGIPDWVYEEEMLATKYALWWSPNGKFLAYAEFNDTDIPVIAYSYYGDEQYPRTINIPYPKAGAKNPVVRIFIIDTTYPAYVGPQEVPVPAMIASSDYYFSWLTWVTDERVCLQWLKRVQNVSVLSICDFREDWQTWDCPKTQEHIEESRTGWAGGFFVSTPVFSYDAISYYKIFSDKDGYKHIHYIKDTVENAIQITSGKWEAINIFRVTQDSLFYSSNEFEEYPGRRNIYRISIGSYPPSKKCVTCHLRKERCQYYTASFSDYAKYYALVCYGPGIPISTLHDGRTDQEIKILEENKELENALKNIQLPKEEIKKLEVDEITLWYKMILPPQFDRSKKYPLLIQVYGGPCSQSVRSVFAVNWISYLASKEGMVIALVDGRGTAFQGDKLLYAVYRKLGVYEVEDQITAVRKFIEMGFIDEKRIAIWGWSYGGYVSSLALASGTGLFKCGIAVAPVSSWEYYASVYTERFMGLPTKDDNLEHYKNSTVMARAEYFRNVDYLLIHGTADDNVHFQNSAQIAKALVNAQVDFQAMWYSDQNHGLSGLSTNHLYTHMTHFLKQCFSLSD", "assay": "inhibition assays on SB9 oligopeptidase family enzymes", "type": "biochemical", "settings": "0-1000 nM antibody", "description": "To determine the inhibitory ability of the antibody a black 96 well plate was blocked for 1 h with blocking buffer. NI-206.82C2 was pipetted at concentrations of 1000, 50, 10, 3.03, 1.01, 0.031, 0.001, and 0 nM in PBS into the according wells. The enzymes were added at a concentration of 0.2 nM. Finally, fluorgenic substrates were then added to the well at a concentration equal to the Michaelis constant (Km) and the velocity of the substrate cleavage was quantified by fluorescence at 360 nm excitation and 460 nm emission. H-Gly-Pro-AMC (AAT Bioquest, 13450) was used for DPP4, DPP9, and DPP8. Z-Gly-Pro-AMC (BaChem, 11145) was used to evaluate the activity of POP/PREP. FAP activity was assessed using DQ-gelatin (Life Technologies, D12054) and cleavage quantified at 495 nm excitation and 515 nm emission."}, "[2]": {"test_system": "obstructive human coronary thrombi and aortic atherosclerotic plaque", "assay": "confocal immunofluorescence on human coronary thrombi and aortic atherosclerotic plaque", "settings": "Cy3 labelled antibody", "description": "NI-206.82C2 was labelled with Cyanine 3 for fluorescent imaging (Cy3 conjugation kit: Innova Biosciences, 340-0030) and antibody labelling was validated using a spectophotometer. Cryosections from myocardial infarction causing obstructive human coronary thrombi (FIG. 14, A) and human aortic atherosclerotic plaque (FIG. 14, B) were fixed for 5 minutes in ice cold acetone and allowed to dry for 10 minutes before washing in PBS. The sections were then incubated for 1 hr at room temperature in 5% BSA in PBS, and then incubated with Cyanine 3 labelled antibodies overnight at 4° C., before washing three times in PBS before incubation with DAPI at 0.5 μg/mL. Sections were then washed three additional times in PBS and mounted in Lisbeth's mounting medium before imaging on a SP8 confocal microscope (Leica Microsystems)."}, "[3]": {"test_system": "human breast cancer tissue sections", "assay": "immunohistochemistry on human breast cancer tissue sections", "settings": "chimeric form with murine constant domain, 10 μg/mL, DAB", "description": "Human breast cancer tissue sections were allowed to dry for 10 min at room temperature, and then fixed for 15 minutes in 4% paraformaldahyde, followed by washing three times 5 minutes in PBS. Slides were then incubated for 5 min in 0.3% H2O2 in PBS to block endogenous peroxidase activity, and subsequently washed 3 times 5 min in PBS. Endogenous biotin was then blocked using the Biotin-Blocking System (DAKO X0590), followed by times washing with PBS. Blocking of unspecific antibody binding and permeabilization of the tissue section was performed using blocking buffer (5% goat serum, 5% horse serum, 0.3M glycine, 5% BSA, and 0.5% Triton X100 in PBS). Tissue sections were then stained with a recombinantly engineered chimeric form of NI-206.82C2 with a murine constant domain and the human variable domain of the original antibody and a matched isotype control (43A11) at 10 μg/mL in permeabilization buffer overnight at 4° C. Following three PBS washing steps, the sections were incubated with a biotinylated goat anti-mouse antibody for 1 h at room temperature. For amplifying the target antigen the VECTASTAIN ABC kit (Vector Labs) was used, followed by development with 3,3′-diaminobenzidine (DAB) and counterstained with Mayer's haematoxylin blue. […]"}}}
{"molecule": "NI-206.82C2: human-derived recombinant anti-FAP antibody; VH SEQ ID NO: 2 or 4 (PIMC), VL SEQ ID NO: 6 (antibody, V domains shown) VH: QVQLQQSGPGLVKPSQTLSLTCAISGDSVSSNSVTWNWIRQSPSRGLEWLGRTYYRSKWYNDYAVSVKGRITINPDTSKNQFYLQLKSVTPEDAAVYYCARDSSILYGDYWGQGTLVTVSS VL: QAVLTQPSSLSASPGASASLTCTLPSGINVGTYRIFWFQQKPGSPPQYLLSYKSDSDNHQGSGVPSRFSGSKDASANAGILLISGLQSEDEADYYCMIWHSSAWVFGGGTKLTVL", "values": [{"measurement": "inhibition selectivity for rhFAP over FAP homologues", "setting": "[1]", "result": "selectively inhibits rhFAP, but not FAP homologues"}, {"measurement": "binding to human coronary thrombi and aortic atherosclerotic plaque", "setting": "[2]", "result": "binds"}, {"measurement": "staining of human ductal carcinoma in-situ tissue", "setting": "[3]", "result": "Positive staining"}, {"measurement": "staining of human invasive ductal carcinoma tissue", "setting": "[3]", "result": "Positive staining"}]}
